Test results as given in paper PMC6555819, “Comprehensive study of nuclear receptor DNA binding provides a revised framework for understanding receptor specificity”.
Where a chain is given by its changes, count along the chain named.

B1: NRC3_wobSeed101_DR4_C18G_o1 (dsDNA)
DNA 1: GCCCTTACGGGTCACTCGAGGTTATAGCATCGGAGTGCGATTGACAGCGTAGAATGAAGG
DNA 2: CCTTCATTCTACGCTGTCAATCGCACTCCGATGCTATAACCTCGAGTGACCCGTAAGGGC
B2: NRC3_wobSeed114_DR4_G17C_o1 (dsDNA)
DNA 1: GCAATACAGGGTCATCCTAGGCCAGAGTACGCACAGGCGATTGACAGCGTAGAATGAAGG
DNA 2: CCTTCATTCTACGCTGTCAATCGCCTGTGCGTACTCTGGCCTAGGATGACCCTGTATTGC
B3: NRC3_wobSeed114_DR4_T18G_o1 (dsDNA)
DNA 1: B2 DNA 1 with C17G, T18G
DNA 2: B2 DNA 2 with A43C, G44C
B4: NRC3_wobSeed2_DR0_G16C_o1 (dsDNA)
DNA 1: GCCCTAGTTGGTCAACGTCACACACGCTATAGGTACGCGATTGACAGCGTAGAATGAAGG
DNA 2: CCTTCATTCTACGCTGTCAATCGCGTACCTATAGCGTGTGTGACGTTGACCAACTAGGGC
B5: NRC3_wobSeed100_DR4_A17T_o1 (dsDNA)
DNA 1: GCCCTACTGGGCCACGTAAGGTCATTGATTCAGTGAGCGATTGACAGCGTAGAATGAAGG
DNA 2: CCTTCATTCTACGCTGTCAATCGCTCACTGAATCAATGACCTTACGTGGCCCAGTAGGGC
B6: NRC3_wobSeed73_DR3_A16T_o1 (dsDNA)
DNA 1: GCCAAACTAGGTCACTGAGGTCAAAGTCCGTGCGTAGCGATTGACAGCGTAGAATGAAGG
DNA 2: CCTTCATTCTACGCTGTCAATCGCTACGCACGGACTTTGACCTCAGTGACCTAGTTTGGC
B7: NRC3_wobSeed111_DR4_G11A_o1 (dsDNA)
DNA 1: GCCGAACTAGATCAGAACAGGACAGTGAAGGATGATGCGATTGACAGCGTAGAATGAAGG
DNA 2: CCTTCATTCTACGCTGTCAATCGCATCATCCTTCACTGTCCTGTTCTGATCTAGTTCGGC
B8: NRC3_wobSeed136_DR5_T12C_o1 (dsDNA)
DNA 1: GCTAGCCTAGGCCATTCAGGGGCCAGTATAGAAAGCGCGATTGACAGCGTAGAATGAAGG
DNA 2: CCTTCATTCTACGCTGTCAATCGCGCTTTCTATACTGGCCCCTGAATGGCCTAGGCTAGC
B9: NRC3_wobSeed130_DR5_G24C_o1 (dsDNA)
DNA 1: GCCTCGAAAGGTCGTGCTCAGGTCAGTATACCAAACGCGATTGACAGCGTAGAATGAAGG
DNA 2: CCTTCATTCTACGCTGTCAATCGCGTTTGGTATACTGACCTGAGCACGACCTTTCGAGGC
B10: NRC3_wobSeed27_DR1_G18A_o1 (dsDNA)
DNA 1: GCACTCGGAGGACAAAGATCAGAGCTACGCCAGTGAGCGATTGACAGCGTAGAATGAAGG
DNA 2: CCTTCATTCTACGCTGTCAATCGCTCACTGGCGTAGCTCTGATCTTTGTCCTCCGAGTGC
B11: NRC3_wobSeed72_DR2_G18C_o1 (dsDNA)
DNA 1: GCTCGAGTAGGTTACGGCGGCATTCAGGGATGAAGAGCGATTGACAGCGTAGAATGAAGG
DNA 2: CCTTCATTCTACGCTGTCAATCGCTCTTCATCCCTGAATGCCGCCGTAACCTACTCGAGC
B12: NRC3_wobSeed120_DR4_A17T_o1 (dsDNA)
DNA 1: GCCCGAGTAGGTTACGTGGGGGCATTCAGTGCGAATGCGATTGACAGCGTAGAATGAAGG
DNA 2: CCTTCATTCTACGCTGTCAATCGCATTCGCACTGAATGCCCCCACGTAACCTACTCGGGC
B13: NRC3_wobSeed122_DR5_C24A_o1 (dsDNA)
DNA 1: GCGCTAGTTGGTCAGTAAAAGGTAACACACCGGTCGGCGATTGACAGCGTAGAATGAAGG
DNA 2: CCTTCATTCTACGCTGTCAATCGCCGACCGGTGTGTTACCTTTTACTGACCAACTAGCGC
B14: NRC3_wobSeed112_DR4_C22T_o1 (dsDNA)
DNA 1: GCTAGCCTAGGTCAGATCGGGTCAGTATACGCTATAGCGATTGACAGCGTAGAATGAAGG
DNA 2: CCTTCATTCTACGCTGTCAATCGCTATAGCGTATACTGACCCGATCTGACCTAGGCTAGC
B15: NRC3_wobSeed112_DR4_T8G_o1 (dsDNA)
DNA 1: B14 DNA 1 with T8G, T22C
DNA 2: B14 DNA 2 with A39G, A53C
B16: NRC3_wobSeed106_DR4_G15A_o1 (dsDNA)
DNA 1: GCCTCGAAAGGTCGATTGAGGTGAGTATACGGATAAGCGATTGACAGCGTAGAATGAAGG
DNA 2: CCTTCATTCTACGCTGTCAATCGCTTATCCGTATACTCACCTCAATCGACCTTTCGAGGC
B17: NRC3_wobSeed106_DR4_T4G_o1 (dsDNA)
DNA 1: B16 DNA 1 with T4G, A15G
DNA 2: B16 DNA 2 with T46C, A57C
B18: NRC3_wobSeed110_DR4_T19A_o1 (dsDNA)
DNA 1: GCTCTGCTAGGTCAACGAAGGTCAGCTAATCTGCTAGCGATTGACAGCGTAGAATGAAGG
DNA 2: CCTTCATTCTACGCTGTCAATCGCTAGCAGATTAGCTGACCTTCGTTGACCTAGCAGAGC
B19: NRC3_wobSeed85_DR3_A16C_o1 (dsDNA)
DNA 1: GCCGTCCAAGGTCAGCGAGGTCAGTGAATGCCGAGTGCGATTGACAGCGTAGAATGAAGG
DNA 2: CCTTCATTCTACGCTGTCAATCGCACTCGGCATTCACTGACCTCGCTGACCTTGGACGGC
B20: NRC3_wobSeed103_DR4_A13T_o1 (dsDNA)
DNA 1: GCGCATATAGGTTATACAAGGTGAAAGTCCGATTGTGCGATTGACAGCGTAGAATGAAGG
DNA 2: CCTTCATTCTACGCTGTCAATCGCACAATCGGACTTTCACCTTGTATAACCTATATGCGC
B21: NRC3_wobSeed103_DR4_A16T_o1 (dsDNA)
DNA 1: B20 DNA 1 with T13A, A16T
DNA 2: B20 DNA 2 with T45A, A48T
B22: NRC3_wobSeed118_DR4_G24A_o1 (dsDNA)
DNA 1: GCTTACCAAGGTGAGCTGAGGTCATTGATCCAACTCGCGATTGACAGCGTAGAATGAAGG
DNA 2: CCTTCATTCTACGCTGTCAATCGCGAGTTGGATCAATGACCTCAGCTCACCTTGGTAAGC
B23: NRC3_wobSeed118_DR4_A8G_o1 (dsDNA)
DNA 1: B22 DNA 1 with A8G, A24G
DNA 2: B22 DNA 2 with T37C, T53C
B24: NRC3_wobSeed118_DR4_G15C_o1 (dsDNA)
DNA 1: B22 DNA 1 with G15C, A24G
DNA 2: B22 DNA 2 with T37C, C46G
B25: NRC3_wobSeed121_DR5_T8C_o1 (dsDNA)
DNA 1: GCCAAACCAGGTCACCGGAAGGTCAAAGTCCGCATGGCGATTGACAGCGTAGAATGAAGG
DNA 2: CCTTCATTCTACGCTGTCAATCGCCATGCGGACTTTGACCTTCCGGTGACCTGGTTTGGC
B26: NRC3_wobSeed37_DR1_A25G_o1 (dsDNA)
DNA 1: GCCGTCCAAGGTCAAAGGTCAGTGGAGAGATGACGGGCGATTGACAGCGTAGAATGAAGG
DNA 2: CCTTCATTCTACGCTGTCAATCGCCCGTCATCTCTCCACTGACCTTTGACCTTGGACGGC
B27: NRC3_wobSeed52_DR2_C21G_o1 (dsDNA)
DNA 1: GCCCTACTGGGCCATCAGGTGATTGATATCAACGTTGCGATTGACAGCGTAGAATGAAGG
DNA 2: CCTTCATTCTACGCTGTCAATCGCAACGTTGATATCAATCACCTGATGGCCCAGTAGGGC
B28: NRC3_wobSeed119_DR4_T21G_o1 (dsDNA)
DNA 1: GCGGAACGAGGGCATTCGAGGTGATAGCATGGCGATGCGATTGACAGCGTAGAATGAAGG
DNA 2: CCTTCATTCTACGCTGTCAATCGCATCGCCATGCTATCACCTCGAATGCCCTCGTTCCGC
B29: NRC3_wobSeed108_DR4_T23C_o1 (dsDNA)
DNA 1: GCGCGACTGGGGCAAAGCAGGTCACCATAAGGTTGGGCGATTGACAGCGTAGAATGAAGG
DNA 2: CCTTCATTCTACGCTGTCAATCGCCCAACCTTATGGTGACCTGCTTTGCCCCAGTCGCGC
B30: NRC3_wobSeed102_DR4_C12T_o1 (dsDNA)
DNA 1: GCCCTAGCAGGTCAATCTGGGTCACTCAAGGCTTGAGCGATTGACAGCGTAGAATGAAGG
DNA 2: CCTTCATTCTACGCTGTCAATCGCTCAAGCCTTGAGTGACCCAGATTGACCTGCTAGGGC
B31: NRC3_wobSeed49_DR2_A15T_o1 (dsDNA)
DNA 1: GCCAAACTAGGTCATGAGGTCAAAGTCCGCTTCCCGGCGATTGACAGCGTAGAATGAAGG
DNA 2: CCTTCATTCTACGCTGTCAATCGCCGGGAAGCGGACTTTGACCTCATGACCTAGTTTGGC
B32: NRC3_wobSeed138_DR5_T12G_o1 (dsDNA)
DNA 1: GCGATACAGGGGCAGCTAGAGGCCAGAGTATGGAAAGCGATTGACAGCGTAGAATGAAGG
DNA 2: CCTTCATTCTACGCTGTCAATCGCTTTCCATACTCTGGCCTCTAGCTGCCCCTGTATCGC
B33: NRC3_wobSeed98_DR4_T8G_o1 (dsDNA)
DNA 1: GCACTAGGTGGTCAGCTGAGGTCACACACAATTCGGGCGATTGACAGCGTAGAATGAAGG
DNA 2: CCTTCATTCTACGCTGTCAATCGCCCGAATTGTGTGTGACCTCAGCTGACCACCTAGTGC

Target: THRa:RXRa (Homo sapiens, UniProt P10827;P19793 full;full)
Sequence (P10827 other isoform, or with tags, fused parts or gaps, chain 1 of 2): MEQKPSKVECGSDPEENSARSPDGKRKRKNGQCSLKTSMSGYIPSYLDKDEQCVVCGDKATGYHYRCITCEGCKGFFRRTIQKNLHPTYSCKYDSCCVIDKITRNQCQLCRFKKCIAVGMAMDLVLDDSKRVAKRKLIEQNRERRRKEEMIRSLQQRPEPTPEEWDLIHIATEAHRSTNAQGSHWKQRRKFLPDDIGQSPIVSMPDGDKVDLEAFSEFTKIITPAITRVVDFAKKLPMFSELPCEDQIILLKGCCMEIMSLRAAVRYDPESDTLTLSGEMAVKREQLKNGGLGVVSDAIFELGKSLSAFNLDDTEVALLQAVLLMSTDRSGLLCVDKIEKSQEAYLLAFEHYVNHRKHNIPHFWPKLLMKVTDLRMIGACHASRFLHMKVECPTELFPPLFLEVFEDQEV
Sequence (P19793 whole entry, chain 2 of 2): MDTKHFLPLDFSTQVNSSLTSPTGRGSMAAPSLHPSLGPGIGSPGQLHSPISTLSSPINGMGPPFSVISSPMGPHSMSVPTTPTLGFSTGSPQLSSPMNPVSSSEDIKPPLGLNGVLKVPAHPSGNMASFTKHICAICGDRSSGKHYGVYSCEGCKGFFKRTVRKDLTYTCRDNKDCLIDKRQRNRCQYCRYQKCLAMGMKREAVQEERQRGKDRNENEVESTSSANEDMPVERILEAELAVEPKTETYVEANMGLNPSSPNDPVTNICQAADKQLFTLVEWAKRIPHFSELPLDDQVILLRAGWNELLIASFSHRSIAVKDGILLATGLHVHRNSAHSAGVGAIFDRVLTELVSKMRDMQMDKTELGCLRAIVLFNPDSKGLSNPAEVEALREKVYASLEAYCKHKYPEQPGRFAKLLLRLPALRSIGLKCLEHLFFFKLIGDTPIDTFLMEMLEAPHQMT
Assay: no ligand; PBM; 90 nM : 90 nM RXRa; PBS pH 7.4, 2% milk, 0.02% Triton X-100, 1 mM DTT, BSA, 0.4 mg/ml salmon testes DNA
Settings: tags: His kept;His cleaved; copies: 1;1; label: surface-attached array probe

Binder	binding signal
B1	5.34 PBM z-score against 500 random probes
B2	5.26 PBM z-score against 500 random probes
B3	5.17 PBM z-score against 500 random probes
B4	0.39 PBM z-score against 500 random probes
B5	4.98 PBM z-score against 500 random probes
B6	5.07 PBM z-score against 500 random probes
B7	0.34 PBM z-score against 500 random probes
B8	0.47 PBM z-score against 500 random probes
B9	4.84 PBM z-score against 500 random probes
B10	0.36 PBM z-score against 500 random probes
B11	0.41 PBM z-score against 500 random probes
B12	4.87 PBM z-score against 500 random probes
B13	0.45 PBM z-score against 500 random probes
B14	5.04 PBM z-score against 500 random probes
B15	4.92 PBM z-score against 500 random probes
B16	5.36 PBM z-score against 500 random probes
B17	5.31 PBM z-score against 500 random probes

Binder	binding signal
B18	5.01 PBM z-score against 500 random probes
B19	4.81 PBM z-score against 500 random probes
B20	5.07 PBM z-score against 500 random probes
B21	4.81 PBM z-score against 500 random probes
B22	5.35 PBM z-score against 500 random probes
B23	5.02 PBM z-score against 500 random probes
B24	5.05 PBM z-score against 500 random probes
B25	4.95 PBM z-score against 500 random probes
B26	5.12 PBM z-score against 500 random probes
B27	0.39 PBM z-score against 500 random probes
B28	5.22 PBM z-score against 500 random probes
B29	4.79 PBM z-score against 500 random probes
B30	5.18 PBM z-score against 500 random probes
B31	4.8 PBM z-score against 500 random probes
B32	0.48 PBM z-score against 500 random probes
B33	5.35 PBM z-score against 500 random probes
